Here are results for 41 sequences from the nanobody polyreactivity screen of Harvey et al. (2022).

The nature of this data set: yeast display, Sf9 membrane polyspecificity reagent, FACS + sequencing; frameworks hold sequencing errors. Summed up:
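Genes from sorted yeast were amplified by colony PCR, read by MiSeq 2 × 250 sequencing and filtered on CDR length. These cells carried a synthetic nanobody library in Saccharomyces cerevisiae BJ5465 and were sorted by FACS into low and high (top ~1%) gates on anti-HA and streptavidin fluorescence. Polyreactivity is labelled according to the gate of origin.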
Turning to “QVQLQESGCRLVQAGGRLRMSCAASGNIIDADIMGWYRQAPGKERELVASITDGRRTNYADSVKGRYTNSRDSEKNTVYMQMNSLKPEDTAVYYCAAIAYPVVPTYFDYDSDYFHWGQGTQVTVSS”, the “polyreactivity (PSR sort gate)” value is recorded as “high polyreactivity”.
The entry for “QVQLVESGGGLVQAGGSLRLSCAASGSTFRNNAMGWYRQAPGKERELVAAISRGGGSTYYADSVKGRFTISRDNAKNTVYLQMNSLKPEDTAVYYCARRPTGIYDYWGQGTQVTVSS” is “high polyreactivity”; for “QDQLVESGGGLVQAGGSLRLSCAATASIFVTYAMGWYRQAPGQERELVAAINYSGGSTYYADSVKGRFTISRDNAKNTFYLQMNSLKPEDTAVNYCAADERVDQGWIRMDYWGQGTQVTVSS” it is “low polyreactivity”; for “QVQLVESGGGLVQAGGSLRLSCAASGLTYAYNAMGGSRQAPGKERELVAAISKRGGSTYYADSVKGRFTISRDNAKNTVYLQMNSLKPEDTAVYYCAAGTYAIHDYWGLGTQVTVSS” it is “high polyreactivity”.
The entry for “QVQLVESGGGLVQAGGSLRLSCAASGSTFWSNAMGWYRQAPGKERELVAAISISDGNTYYADSVKVRFTISRDNAKNTVYLQMNSLKPEDTAVYYCATVGSEDGDPGFDYWGQGTQVTVSS” is “low polyreactivity”; for “QVQLVESGGGLVQAGGSLRLSCAASGSIFLYYAMGWYRQAPGNERELVAGINRVGSTNYADSVKGRFTISRDNAKNTVYLQMNSLKPEDTAVYYCNKRATRSRRRGYWGQGTQVTVSS” it is “low polyreactivity”; for “QVQLVESGGGLVQAGGSLRLSCAASGGIFGLYAMGWYRQAPGKERELVAAISWSGGSTYYADSVKGRFTISRDNAKNTVYLQMNSLKPEDTAVYYCAAEWDTNFWYDYWGQGTQVTVSS” it is “low polyreactivity”.
Take “QVQLLESGGGLVQAGGILRLSCAASGRIIVYYAMGWYRQAPGKERELVAAITRGGSTKYADSVKGRFTISRDNAKNTVYLQMNSLKPEDTAVYYCATATSRRSGYDYWGQGTQVSVSS”: the “polyreactivity (PSR sort gate)” value is recorded as “high polyreactivity”.
The result for “QVQLVESGGGLVQAGGSLRLSCAASGMTFWSYAMGWYRQAPGKDRELVAAITIGGTTYYADSVKGRFTISRDNAKNTVYLQMNSLKPEDTAVYYCAVDSTDQAPPTYDYWGQGTQVTVSS” reads “low polyreactivity”; that for “QVHLVESGGGLVQAGGSLRLSCAASGFTSQYYAMGWYRQAPGKERELVAAITLRDGSTYYADSVKGRFTISRDNAKNTVYLQMNSLKPEDTAVYYCNTDATSDPYGFGYWGQGTQVTVSS”, “low polyreactivity”; that for “QVQLVESGGGLVQAGGSLRLSCAASGRIFAFNVMGWYRQAPGKEREMVAAISTRDGSTYYADSVKGRFTISRDNAKNTVYLQMNSLIPEDTAVYYCNAVVRYYDWGYWDYDYWGQGTQVTVSS”, “low polyreactivity”.
The entry for “QVQLVESGGGLVQAGGSLRLSCAASGRTFVFYTMGWYRQAPGKERELVAAINSRGGRTYYADSVKGRFTISRDNAKNPVYLQMNSLKPEDTAVYYCNAAFYVTDHDYWGKGTQVTVSS” is “high polyreactivity”.
The result for “QVQIVESGGGLFQAGGILRLSCAASGLTLFRDAMGWYRQAPGKERELVAAIDYGGGTYYADSVKGRFTISRDNAKTTVNLQMNRLKVEDTAVYYCAVEPEYKYYEGDFWGQGTQVTVSS” reads “low polyreactivity”; that for “QDQLVESGGGLVQAGGSLRLSCAASGSTFGYYAMGWYRQAPRKERELVAAISWRGGSTSYADSVKGRFTISRDNAKNTVYLQMNSLKPEDTAVYYCAAPRGTLTSWAGNYWGQGTQVTVSS”, “high polyreactivity”.
As to “QVQLVESGGGLVQAGGSLRLSCAASGSIFTGNAMGWYREAPGKERELVAAITNGGITNYADSVKRRFTISRDNAMNTVYLQMNSLKPEDTAVYYCAADYVDFYSFRRFDYWGQGTQVTVSS”, the “polyreactivity (PSR sort gate)” value is “low polyreactivity”.
Take “QVQLVESGGGLVQAGGSLRLSCAASGIIFPRNAMGWYRQAPWKERELVAGISRSGGSTSYADSVKGRFTFSRDNAKNTVYLQMNSLKPEDTAVFYCASRGHPFKKSYGSWGQGTQVTVSS”: the “polyreactivity (PSR sort gate)” value is “high polyreactivity”.
The result for “QFQLVESGGGLVQAGGSLRLSCAASVSTVVIYDMGWYRQAPGKERELVAAISYSGGSTYYADSVKGRFTITRDNAKNTVYLQMNSLKPEDTAVYYCNAGVLVLLYAYLPSDLEYWGQGTQVTVSS” reads “low polyreactivity”; that for “QVQLVESGGGLVQAGASLRLSCAASGRTLGYYAMGWSRQEPGKERELVAAISRSGGSTYYADSVKGRFTISRDNAKNTVYLQINSLKPEDTAVYYCAATYGPSRYRYDYWGQGTQVTVSS”, “high polyreactivity”.
The result for “QVQLVESGGGLVQAGGSLRLSCAASGIIFGWYAMGWYRQAPGKERELVAAINWSGTSTYYADSVKGRFTISRDNAKNTVYLQMNSLKPEDPAVYYCAAYFQKLPTTGYEYWGQGTQVTVSS” reads “low polyreactivity”; that for “QVQLVESGGGLVQAGGSLRLSCAASGRTFASYDMGWYRQAPGKEREVVAVIRSGGSTKYADSVKGRFTISRDNAKNTVYLQMNSLKPEDTAVYYCARTYAKTYLSVYLFYYWGQGTQVTVSS”, “low polyreactivity”.
The result for “QVQLVESGGGLVQAGGRLRLSCAASGFTFNWYDMGWYRQAPGKERELVATISTGGGTNYADSVKGRFTITRYNAKNTVYLQMNSLKPEDSAVYYCAADGSAGYLWGYDFEGVYWGQGTQVTVSS” reads “high polyreactivity”; that for “QVQLVESGGGLVQAGGSLRLSCAASGRTFFYNAMGWYRQAPGKERELVATITWTGDSTYADSVKGRFTISRDNAKNTVYLQMNSLKPEDTAVYYCAAGKPVILTGDYDYWGQGTQVTVSS”, “low polyreactivity”; that for “QVQLEESGGGLVQAGGSLRLICAASGSTFIYNAMGWYRQAPGKERELVAAISARTGNTYYADSVKGRFTISRDNAKNTVYLQMNSLKPEDTAVYYCARRGFPRGGGPSRYYWYDYWGQGTQVTVSS”, “high polyreactivity”.
For “QVQLVESGGGLVQAGGSLRLSCAASGFNFGNYAMGWYRQAPGKERELVAVISRGGSTYYADSVKGRFTISRDYAKNSVYLQMNSLKPEDTAVYFCAARAFPPYGYDYWGQGTQVTVSS”, the “polyreactivity (PSR sort gate)” value is given as “high polyreactivity”.
The entry for “QVQLVESGGGLVQAGGSLRLSCAASGSTFDTYAMGWYRQAPGKERELVAAISRSGTSTYYADSVKGRFTISRDNAKNTVYLQMISLKPEDTAVYYCDKDAGLQKYHHDYWGQGTQVTVSS” is “low polyreactivity”.
The entry for “QVQLVETGGGLVQAGGRLRLSCAASGRILPGNAMGWSRQAPGKERELVAAISSGGRTNYADSVKGRFTISRDNAKNTVYLQMNSLKPEESAVYYCAKRTVWWSNWHYYPPTYNYWGQGTQVTVSS” is “high polyreactivity”.
The entry for “QVQLVESGGVLVQAGGSLRLSCAASGRIFTRNAMGWYRQAPGKERELVASITRGGSTYYADSVKGRFTISRDNAKITVYLQMNCLKAEDTALYYCAAVFYDRGQRYNYWGQGTQVTVSS” is “high polyreactivity”; for “QVQLVESGGGLVQAGGSLRVSCAASGRTFGRYAMGWYRQATGKERELVAAISYSGGSTYYADSVKGRFTISRDNAKNNVYLQMNSLKPEDTAVYYCAAYYSGKDGYWGQGTQVTVSS” it is “high polyreactivity”; for “QVQLVESGGGLVQAGGSLRLSCAASGRTFSGYAMGWYRQAPGKERELVAAISNSGGRTYYADSVKGRFTISRDNAKNTDYLQMNSLKPEDTAVYYSNAVSYWRYDYWGQGTQVTVSS” it is “high polyreactivity”.
In the case of “QVQLVESGGGLVQAGGSLRLSCAASGSTFGANAKGWYRQAPGKARALVAAITWSGGSTYYADSVKGRFTISRDNAKNTVFLQMNSLKPEDTAVSYCNAVARWYVLQVYEYDYWGQGTQVTVSS”, the “polyreactivity (PSR sort gate)” value is given as “low polyreactivity”.
Consider “QVQLVESGGGLVQAGGSLRLSCAASGGIFTINAMGWYRQAPGKERELVAAITYGGTSTNYADSVKGRFTISRDNAKNTVYLQMNSLKPEDTAVYYCAKLPNLPGDYWGQGTQVTVSS”, for which the “polyreactivity (PSR sort gate)” value is given as “low polyreactivity”.
The result for “EDQLEESGGGLVQAGGSLRLSCAASGLIFPSYVMGWYRQAPGKERELVASISRVGSTYADSVKGRFTISRDNAKNTVYLQMNSLKPEDTAVYYCAKQVVWRGFRGLDYWGQGTQVTLSS” reads “high polyreactivity”; that for “QVQLVESGGGLVQAGGSLRISCASSGSTFGYYAIGWYRQAPGKESELVAAIRRSGGRTYYADSVKGRFTISRDNAKNTVYLQLNSLKPEDTAVYYCAKDGYSRRNSQKTPYDYWGQGTQVTVSS”, “low polyreactivity”; that for “QVQLVESGGVLVQAGGSLRLSCAASGRIFSIYGMGWYRQAPVKEREFVASITYSGGSTYNADSVKGRFTISRDTAKNTVYLQMKSLKPEDTAVYYCAKYVFSAYDYWGQGTQVTVSS”, “low polyreactivity”.
The entry for “QVQLVESGGGLVQAGGSLRLSCAASGITFYRNARGWYRQAPGKERELVAAITSGTRTYYADSVKGRFTISRDNAKNTVYLQMNSLKPEDTAVYYCAKRGPYYNDDEYYCGQGTQVTVSS” is “low polyreactivity”; for “QVQLVESGGGLVQAGGSLRLSCAASGRIFDENAMGWYRQAPGKERELVATISSSGVSTSYADSVKGRFTISRDNAKNTVYLQMNSLKPEDTAVYYCNAGYRRRYKFVYWGQGTQVTVSS” it is “low polyreactivity”.
The entry for “QVQLVESGGGLVQAGGSLRLSCAASGSTFWLNAMGWYRQAPGKERELVAAITGLGGSTYYADSVKGRFTISRDTAKNTVYLQMNSLKPEDTAVYYCAAGAYRRNKSDYYYWGQGTEVTVSS” is “low polyreactivity”; for “QVQLVESGGGLVQAGGSLRLSCAASGSTFAIDAMGWDRQAPGQDRELVASISGGSTNYADSVKGRVTISRDKAKNTVDLQRNSLKPEDTAVYYCAARGALQHWYRYDYWGQGTQGTVSS” it is “low polyreactivity”; for “QVQLVESGGGLVQAGGSLRLSSAASGSIFQDYAMGWYRQEPGKERELVAGINWRGDDTYADSVKGRFTISRDNAKNTVYLQMNSLKPEDTAVYYCNAEDWGYGYDYWGQGTQVTVSS” it is “low polyreactivity”.
Regarding “QVQLVESGGGLVQAGGSLRLSCAASGRIFGRYTMGWYRQAPGKERELVAAISARGGSPNYADSVKGRFTISRDNAKNTVYLQLNSLIPEDTAVYYCNTVRVHGFPIDRIYDYWGQVTQVTVSS”, the “polyreactivity (PSR sort gate)” value is “high polyreactivity”.
The result for “QVQLVESGGCLVQAGGSLRFSCAASGLTFGRNAMGWYRQAPGTERELVAAISRSGGRTSYADSVKGRFTMSRDNAKNTVYLQMNSLKPEETAVYYCAARSDVYTHDYWGQGTQVTVSS” reads “high polyreactivity”.
